This is an account of results in paper PMC11150344 (2024).

Assay [1] deals with T1, PIK3CA H1047L peptide on HLA-A*11:01 (human).
T1 peptide: ALHGGWTTK
Nature of the assay: multimer staining.

Assay [2] has as its target T2, PIK3CA H1047L peptide on HLA-A*03:01 (human).
T2 peptide: ALHGGWTTK
Nature of the assay: activation reporter or marker.

B1: TCR5 (TCR)
alpha TRAV24*01 TRAJ44*01 CDR3: CASHAGTASKLTF
beta TRBV4-3*01 TRBJ2-1*01 CDR3: CASSQDVASSYNEQFF
Take B1: the binding result in assay [1] is “recognises”; in assay [2], “no recognition”.

B2: TCR2 (TCR)
alpha TRAV12-3*01 TRAJ26*01 CDR3: CATNYGQNFVF
beta TRBV29-1*01 TRBJ2-7*01 CDR3: CSVSGTSNYEQYF
With B2, the binding result is listed as “recognises” in assay [1] and “no recognition” in assay [2].

B3: TCR4 (TCR)
alpha TRAV19*01 TRAJ49*01 CDR3: CALSEATGNQFYF
beta TRBV29-1*01 TRBJ2-7*01 CDR3: CSVQTLTSSDEQYF
With B3, the binding result in assay [1] is reported as “recognises”; in assay [2] it was “no recognition”.

B4: TCR1 (TCR)
alpha TRAV13-2*01 TRAJ49*01 CDR3: CAEGETGNQFYF
beta TRBV5-1*01 TRBJ2-1*01 CDR3: CASSSGTGGFEQFF
As for B4, the binding result in assay [1] was “recognises”; in assay [2], “no recognition”.
